Results as given in paper PMC12394453 (Signal Transduction and Targeted Therapy, 2025).

What was measured:
Details in all cases: both partners purified
[1] = target: NiV-G head domain (crystallisation construct, deglycosylated) (Nipah virus, NP_112027 / Q9IH62 …); test: crystal structure
[2] = target: deglycosylated NiV-G (N-linked glycans removed with PNGase F) (Nipah virus, Bangladesh isolate …, UniProt Q4VCP5, strain, N-linked glycans removed with PNGase F); test: SPR; Biacore T200; antibody (0.5 μg/mL in HBS-EP+) […]; association 120 s, dissociation 900 s
[3] = target: T1, HeV-G (wild-type Hendra virus attachment glycoprotein G, soluble recombinant) (Hendra virus, UniProt O89343); test: SPR
T1 construct: source: Expi-293F, purified (StrepTrap HP)

Binder | binding result [1] | binding result [2] | binding result [3]
14F8 Fab (Fab, V domains shown, also called 14F8 Fab fragment) VH: QVQLKESGPGLVAPSQSLSITCTVSGFSLTSYDISWIRQPPGKGLEWLGVIWTGGVTNYNSAFLSRLSISKDNSKSQVFLKMNSLQTDDTAIYYCVREGDWFFDVWGAGTTVTVSS VL: DVLMTQTPLSLPVSLGDQASISCRSSQSIVHSNGNTYLEWYLQKPGQSPQLLIYKVSNRFSGVPDRFSGSGSGTDFTLKINRVEAEDLGLYYCFQASHVPYTFGGGTKLEIK | binds | – | –
chimeric antibody 14F8 (variable regions of mouse m14F8 on a human IgG1 constant region backbone) (antibody, V domains shown, also called Humanized 14F8; m14F8 (mouse parent)) VH: QVQLKESGPGLVAPSQSLSITCTVSGFSLTSYDISWIRQPPGKGLEWLGVIWTGGVTNYNSAFLSRLSISKDNSKSQVFLKMNSLQTDDTAIYYCVREGDWFFDVWGAGTTVTVSS VL: DVLMTQTPLSLPVSLGDQASISCRSSQSIVHSNGNTYLEWYLQKPGQSPQLLIYKVSNRFSGVPDRFSGSGSGTDFTLKINRVEAEDLGLYYCFQASHVPYTFGGGTKLEIK | – | binds | no binding (tested: 100 nM)
